Measured values published in paper PMC11230385.

Target: T1, Aquaporin Z with a C-terminal Strep-tag II (AqpZ-STII) (Escherichia coli), P60844
T1 chain: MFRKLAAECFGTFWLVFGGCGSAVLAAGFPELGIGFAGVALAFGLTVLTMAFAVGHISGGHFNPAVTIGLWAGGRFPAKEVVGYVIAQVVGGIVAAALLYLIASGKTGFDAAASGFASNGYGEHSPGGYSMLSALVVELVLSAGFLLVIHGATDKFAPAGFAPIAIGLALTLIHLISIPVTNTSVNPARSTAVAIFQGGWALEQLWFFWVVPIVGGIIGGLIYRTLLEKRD
Test: native MS
Details: remark: other sources report otherwise

B1: Aquaporin Z with a C-terminal Strep-tag II (AqpZ-STII), P60844 1-231 (natural protein)
chain: MFRKLAAECFGTFWLVFGGCGSAVLAAGFPELGIGFAGVALAFGLTVLTMAFAVGHISGGHFNPAVTIGLWAGGRFPAKEVVGYVIAQVVGGIVAAALLYLIASGKTGFDAAASGFASNGYGEHSPGGYSMLSALVVELVLSAGFLLVIHGATDKFAPAGFAPIAIGLALTLIHLISIPVTNTSVNPARSTAVAIFQGGWALEQLWFFWVVPIVGGIIGGLIYRTLLEKRD
- stoichiometry N: 4
